Measurements published in article PMC5943153.

What was measured:
Experiment in all cases: two-hybrid
[1] = target: HP0221-T25 (NifU) (Helicobacter pylori strain 26695) (UniProt O25009)
[2] = target: T25-HP0221 (NifU) (Helicobacter pylori strain 26695) (UniProt O25009)
[3] = target: T25-HP0220 (NifS) (Helicobacter pylori strain 26695) (UniProt O25008)
[4] = target: T25-HP1492 (Nfu) (Helicobacter pylori strain 26695) (UniProt O26025)
T25-Zip = target: T25-Zip
Chain of T25-Zip (P03069 whole entry): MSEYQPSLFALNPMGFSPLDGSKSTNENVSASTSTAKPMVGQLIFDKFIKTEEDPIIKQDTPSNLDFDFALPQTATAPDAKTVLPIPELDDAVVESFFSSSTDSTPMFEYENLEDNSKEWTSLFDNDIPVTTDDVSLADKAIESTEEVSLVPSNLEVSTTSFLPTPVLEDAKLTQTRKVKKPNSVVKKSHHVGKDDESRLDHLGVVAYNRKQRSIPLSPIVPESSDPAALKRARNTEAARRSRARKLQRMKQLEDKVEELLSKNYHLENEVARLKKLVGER

Chain of T18-Zip (domain or fragment) (P03069 whole entry, the tested form may be a part): as the sequence (P03069 whole entry) above

“T18-HP1406 (from UniProt O25956 2-282) (natural protein)” showed a growth OD595 in M63-maltose [1] of 0.26 OD595.
With “T18-HP0117 (from UniProt P56080 2-308) (natural protein)” the growth OD595 in M63-maltose [1] was 0.36 OD595.
“T18-HP0468 (from UniProt O25214 2-495) (natural protein)” was tested, and the growth OD595 in M63-maltose [1] was 0.29 OD595.
“T18-HP0142 (from UniProt O24954 2-328) (natural protein)” showed a growth OD595 in M63-maltose [1] of 0.44 OD595.
Substance “T18-HP0285 (from UniProt P56130 2-418) (natural protein)” has a growth OD595 in M63-maltose [1] of 0.25 OD595.
Work on “T18-HP0934 (from UniProt O25588 2-251) (natural protein)” yielded a growth OD595 in M63-maltose [1] of 0.13 OD595.
In the case of “T18-HP0400 (from UniProt P65185 2-274) (natural protein)”, the growth OD595 in M63-maltose [2] is reported as 0.11 OD595.
With “T18-HP0768 (from UniProt P56414 2-321) (natural protein)” the growth OD595 in M63-maltose [1] was 0.21 OD595.
T18-HP1492 (natural protein) showed a growth OD595 in M63-maltose [3] of 0.32 OD595, a growth OD595 in M63-maltose [2] of 0.13 OD595 and a growth OD595 in M63-maltose [1] of 0.29 OD595. The growth OD595 in M63-maltose [4] was 0.39 OD595.
In the case of T18-Zip (domain or fragment), the growth OD595 in M63-maltose (T25-Zip) is reported as 0.23 OD595.
Substance “T18-HP0221 (from UniProt O25009 2-326) (natural protein)” has a growth OD595 in M63-maltose [2] of 0.37 OD595.
With “T18-HP1266 (from UniProt O25856 2-844) (natural protein)” the growth OD595 in M63-maltose [2] was 0.32 OD595.
